{"source": "patent US20090252717A1", "about": "“Compositions and Methods for Treating Polyglutamine-Expansion Neurodegenerative Diseases” (priority 2006, published 2009)", "molecules": {"B1": {"name": "JNK3: recombinant, active JNK3 protein (protein, UniProt P53779 1-464, looked up)", "Mitogen-activated protein …": "MSLHFLYYCSEPTLDVKIAFCQGFDKQVDVSYIAKHYNMSKSKVDNQFYSVEVGDSTFTVLKRYQNLKPIGSGAQGIVCAAYDAVLDRNVAIKKLSRPFQNQTHAKRAYRELVLMKCVNHKNIISLLNVFTPQKTLEEFQDVYLVMELMDANLCQVIQMELDHERMSYLLYQMLCGIKHLHSAGIIHRDLKPSNIVVKSDCTLKILDFGLARTAGTSFMMTPYVVTRYYRAPEVILGMGYKENVDIWSVGCIMGEMVRHKILFPGRDYIDQWNKVIEQLGTPCPEFMKKLQPTVRNYVENRPKYAGLTFPKLFPDSLFPADSEHNKLKASQARDLLSKMLVIDPAKRISVDDALQHPYINVWYDPAEVEAPPPQIYDKQLDEREHTIEEWKELIYKEVMNSEEKTKNGVVKGQPSPSGAAVNSSESLPPSSSVNDISSMSTDQTLASDTDSSLEASAGPLGCCR"}, "B2": {"name": "polyQ-Htt: polyQ-expanded Huntingtin (Q46, residues 1-949) produced by in vitro transcription/translation (protein, UniProt P42858 1-949, looked up, fragment)", "chain": "MATLEKLMKAFESLKSFQQQQQQQQQQQQQQQQQQQQQPPPPPPPPPPPQLPQPPPQAQPLLPQPQPPPPPPPPPPGPAVAEEPLHRPKKELSATKKDRVNHCLTICENIVAQSVRNSPEFQKLLGIAMELFLLCSDDAESDVRMVADECLNKVIKALMDSNLPRLQLELYKEIKKNGAPRSLRAALWRFAELAHLVRPQKCRPYLVNLLPCLTRTSKRPEESVQETLAAAVPKIMASFGNFANDNEIKVLLKAFIANLKSSSPTIRRTAAGSAVSICQHSRRTQYFYSWLLNVLLGLLVPVEDEHSTLLILGVLLTLRYLVPLLQQQVKDTSLKGSFGVTRKEMEVSPSAEQLVQVYELTLHHTQHQDHNVVTGALELLQQLFRTPPPELLQTLTAVGGIGQLTAAKEESGGRSRSGSIVELIAGGGSSCSPVLSRKQKGKVLLGEEEALEDDSESRSDVSSSALTASVKDEISGELAASSGVSTPGSAGHDIITEQPRSQHTLQADSVDLASCDLTSSATDGDEEDILSHSSSQVSAVPSDPAMDLNDGTQASSPISDSSQTTTEGPDSAVTPSDSSEIVLDGTDNQYLGLQIGQPQDEDEEATGILPDEASEAFRNSSMALQQAHLLKNMSHCRQPSDSSVDKFVLRDEATEPGDQENKPCRIKGDIGQSTDDDSAPLVHCVRLLSASFLLTGGKNVLVPDRDVRVSVKALALSCVGAAVALHPESFFSKLYKVPLDTTEYPEEQYVSDILNYIDHGDPQVRGATAILCGTLICSILSRSRFHVGDWMGTIRTLTGNTFSLADCIPLLRKTLKDESSVTCKLACTAVRNCVMSLCSSSYSELGLQLIIDVLTLRNSSYWLVRTELLETLAEIDFRLVSFLEAKAENLHRGAHHYTGLLKLQERVLNNVVIHLLGDEDPRVRHVAAASLIRLVPKLFYKCDQGQADP", "modifications": "polyQ expanded to Q46", "notes": "polyQ-expanded Huntingtin (Q46, residues 1-949) produced by in vitro transcription/translation"}, "B3": {"name": "wild-type Htt: human wild-type Huntingtin (Q20, residues 1-548) produced by in vitro transcription/translation (protein, UniProt P42858 1-548, looked up, fragment)", "chain": "MATLEKLMKAFESLKSFQQQQQQQQQQQQQQQQQQQQQPPPPPPPPPPPQLPQPPPQAQPLLPQPQPPPPPPPPPPGPAVAEEPLHRPKKELSATKKDRVNHCLTICENIVAQSVRNSPEFQKLLGIAMELFLLCSDDAESDVRMVADECLNKVIKALMDSNLPRLQLELYKEIKKNGAPRSLRAALWRFAELAHLVRPQKCRPYLVNLLPCLTRTSKRPEESVQETLAAAVPKIMASFGNFANDNEIKVLLKAFIANLKSSSPTIRRTAAGSAVSICQHSRRTQYFYSWLLNVLLGLLVPVEDEHSTLLILGVLLTLRYLVPLLQQQVKDTSLKGSFGVTRKEMEVSPSAEQLVQVYELTLHHTQHQDHNVVTGALELLQQLFRTPPPELLQTLTAVGGIGQLTAAKEESGGRSRSGSIVELIAGGGSSCSPVLSRKQKGKVLLGEEEALEDDSESRSDVSSSALTASVKDEISGELAASSGVSTPGSAGHDIITEQPRSQHTLQADSVDLASCDLTSSATDGDEEDILSHSSSQVSAVPSDPAMDL", "modifications": "Q20", "notes": "human wild-type Huntingtin (Q20, residues 1-548) produced by in vitro transcription/translation"}, "B4": {"name": "JNK1: recombinant, active JNK1 protein (protein, UniProt P45983 1-427, looked up)", "Mitogen-activated protein …": "MSRSKRDNNFYSVEIGDSTFTVLKRYQNLKPIGSGAQGIVCAAYDAILERNVAIKKLSRPFQNQTHAKRAYRELVLMKCVNHKNIIGLLNVFTPQKSLEEFQDVYIVMELMDANLCQVIQMELDHERMSYLLYQMLCGIKHLHSAGIIHRDLKPSNIVVKSDCTLKILDFGLARTAGTSFMMTPYVVTRYYRAPEVILGMGYKENVDLWSVGCIMGEMVCHKILFPGRDYIDQWNKVIEQLGTPCPEFMKKLQPTVRTYVENRPKYAGYSFEKLFPDVLFPADSEHNKLKASQARDLLSKMLVIDASKRISVDEALQHPYINVWYDPSEAEAPPPKIPDKQLDEREHTIEEWKELIYKEVMDLEERTKNGVIRGQPSPLGAAVINGSQHPSSSSSVNDVSSMSTDPTLASDTDSSLEAAAGPLGCCR"}}, "key": {"[1]": {"system": "fast axonal transport", "test": "Vesicle motility assay in isolated squid axoplasm, perfusion of recombinant protein alone", "assay_type": "cell-based, squid Loligo pealeii", "method": "Recombinant Polypeptides. Wild-type androgen receptor and polyQ-AR polypeptides were produced by in vitro transcription/translation (TNT T7-Coupled Reticulocyte Lysate System; Promega, Madison, Wis.) according to manufacturer's protocols. Typically, 1.8 μg of plasmid was transcribed in 50 μl reaction mix. To assess protein levels, parallel reactions were performed incorporating ^35S-labeled methionine (Amersham) or quantitative immunoblots were performed. Protein concentrations were typically 0.2-0.5 nM. In vitro translated androgen receptor has been characterized and shown to be functional (Kuiper, et al. (1993) Biochem. J. 296(Pt 1):161-7). In vitro translation products were briefly centrifuged to eliminate translation machinery, and supernatants frozen in liquid N2 until used.\nGenes encoding human wild-type Huntingtin (Htt) (i.e., Q20, residues 1-548; Szebenyi, et al. (2003) supra) and polyQ-expanded Htt (i.e., Q46, residues 1-949; Qin, et al. (2004) J. Neurosci. 24(1):269-81) were cloned into the pcDNA.3 vector and produced by in vitro transcription/translation as described for the androgen receptor. Alternatively, shorter constructs (Htt exon1) were expressed in E. coli as GST-tagged proteins.\nSquid Axoplasm. Isolated squid axoplasm represents a unique experimental system to evaluate axonal-specific effects and pathogenic mechanisms. This model was instrumental in the original discovery of kinesin-1 (Brady (1985) Nature 317:73-75, novel pathways for fast axonal transport (Morfini, et al. (2002) supra; Morfini, et al. (2004) supra), and axonal-specific phosphorylation events (Grant & Pant (2000) J. Neurocytol. 29:843-72). Bidirectional membrane-bound organelle movements are observed with properties unchanged from intact axons for hours after removal of plasma membrane (Brady, et al. (1982) Science 218:1129-1131). Video-enhanced microscopic techniques allow quantitative analysis of membrane-bound organelle movement in fast axonal transport. Typical kinesin-dependent transport rates are 1.5-2.0 μm/s, whereas retrograde, cytoplasmic dynein-dependent rates are 1-1.3 μm/s in perfused axoplasms. These rates are maintained with little (<10%) or no reduction for >1 hour after perfusion with control buffer (Brady, et al. (1982) supra). The lack of permeability barriers allows perfusion of the axoplasm with a variety of effector molecules at known concentrations. Effectors of interest include nucleotides, pharmacological inhibitors, recombinant polypeptides, and antibodies. Typically, 6-His, Hemagglutinin, Myc and GST-tagged recombinant proteins are either expressed in bacteria or in vitro translated, purified and perfused (Szebenyi, et al. (2003) supra; Morfini, et al. (2002) supra).\nMotility Studies in Isolated Axoplasm. Axoplasm was extruded from giant axons of the squid Loligo pealeii (Marine Biological Laboratory, Woods Hole, Mass.) as described (Brady, et al. (1985) Cell Motil. 5:81-101). Axons were 400-600 μm in diameter and provided ≈5 μl of axoplasm. […] Preparations were analyzed on a ZEISS AXIOMAT with a 100×, 1.3 n.a. objective, and DIC optics. […] Organelle velocities were measured with a Photonics Microscopy C2117 video manipulator (Hamamatsu)."}, "[2]": {"molecular_target": "T1, kinesin-1 heavy chain (Rattus norvegicus, UniProt P56536)", "T1 construct": "coding for the first 584 amino acids of rat KHC (KHC-584); made in house; host or cells: E. coli", "T1 sequence (P56536 1-584 limits assumed)": "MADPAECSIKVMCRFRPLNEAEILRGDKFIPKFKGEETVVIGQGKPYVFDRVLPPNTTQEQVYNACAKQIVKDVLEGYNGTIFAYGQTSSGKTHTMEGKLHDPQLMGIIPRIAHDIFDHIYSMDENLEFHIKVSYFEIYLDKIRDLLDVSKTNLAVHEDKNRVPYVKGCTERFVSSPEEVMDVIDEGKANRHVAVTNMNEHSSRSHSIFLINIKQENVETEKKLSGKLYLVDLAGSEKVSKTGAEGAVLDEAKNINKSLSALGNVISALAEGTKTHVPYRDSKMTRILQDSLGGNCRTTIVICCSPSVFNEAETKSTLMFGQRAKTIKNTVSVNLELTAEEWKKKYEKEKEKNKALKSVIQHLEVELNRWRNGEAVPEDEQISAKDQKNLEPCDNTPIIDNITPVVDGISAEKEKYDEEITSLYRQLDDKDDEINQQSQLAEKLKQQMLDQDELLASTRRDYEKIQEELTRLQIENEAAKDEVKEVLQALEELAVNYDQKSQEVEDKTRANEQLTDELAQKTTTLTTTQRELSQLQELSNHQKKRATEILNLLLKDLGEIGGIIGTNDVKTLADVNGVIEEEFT", "test": "Binding of kinesin-1 to microtubules after JNK3 treatment", "assay_type": "biochemical", "settings": "kinesin-1 heavy chain treated with JNK3 kinase", "method": "Microtubule Binding Assays. Microtubule binding assays was performed according to established methods (Stenoien & Brady (1997) supra). Briefly, three 70% confluent 100-mm culture dishes containing either wild-type or 902-6 SH-SY5Y cells were homogenized with 500 μl of HEM buffer (50 mM HEPES, 1 mM EGTA, 2 mM MgSO4, 1% TRITON X-100, pH 7.2, 1 μM staurosporine, 1 μM K252a, 50 nM okadaic acid and 1/100 mammalian protease inhibitor cocktail (Sigma) at 4° C. Lysates were centrifuged at 50000 rpm for 5 minutes at 4° C.\nSix hundred μg of total protein from clarified wild-type or 902-6 SH-SY5Y cells were incubated with 0.2 mg of TAXOL-stabilized microtubules (Cytoskeleton, Denver, Colo.) and 2.5 mM AMP-PNP for 30 minutes at 37° C. Samples were centrifuged for 25 minutes at 50000 rpm (4° C.) over a cushion of 20% sucrose in HEM plus 20 μM TAXOL. Pellets and supernatants were collected and the amount of kinesin in each fraction was assayed by immunoblot with anti-kinesin monoclonal antibodies.\nIn Vitro Kinesin-1 Phosphorylation. A recombinant cDNA fragment coding for the first 584 amino acids of rat KHC (KHC-584) was subcloned into pET expression vector, expressed in E. coli and purified by nickel affinity chromatography (Qiagen, Valencia, Calif.). […]"}, "[3]": {"settings": "perfused, concentration not given"}}}
{"molecule": "B1", "values": [{"measurement": "mean rate for anterograde fast axonal transport", "setting": "[1]; [3]", "result": 0.9, "unit": "µM/s"}, {"measurement": "retrograde, cytoplasmic dynein-dependent fast axonal transport mean rate", "setting": "[1]; [3]", "result": 1.25, "unit": "µM/s"}, {"measurement": "effect on binding of kinesin-1 to microtubules", "setting": "[2]", "result": "inhibits the binding of kinesin-1 to microtubules"}]}
{"molecule": "B2", "values": [{"measurement": "effect on fast axonal transport", "setting": "[1]; perfused alone", "result": "striking inhibition of fast axonal transport rates"}]}
{"molecule": "B3", "values": [{"measurement": "effect on fast axonal transport", "setting": "[1]; perfused alone", "result": "showed no effect on either direction of fast axonal transport"}]}
{"molecule": "B4", "values": [{"measurement": "effect on fast axonal transport", "setting": "[1]; perfused at 200 nM", "result": "did not show any effect on either direction of fast axonal transport"}]}
